Experiment [1] addresses GST-AeIAP1 BIR2 (residues 188-278 of AeIAP1) (A. aegypti). Briefly: pull-down.
For experiment [2], the target named is GST-AeIAP1 BIR1 (residues 24-118 of AeIAP1) (A. aegypti). The experiment in a line: pull-down.

% of input bound data for two substances are collected here from paper PMC3197237.

For “activated (cleaved) AeDronc: in vitro translated AeDronc partially processed by active recombinant AeDronc”, the results for the % of input bound in experiment [1] and in experiment [2] were 50.2 % of input and 79.9 % of input, respectively.

For “in vitro translated full length AeDronc (enzyme)”, the % of input bound in experiment [1] is 45.2 % of input; in experiment [2], 70.9 % of input.
